From paper PMC12279946

Columns and labels:
SprT-BR-L99S = target: T1, SprT-BR-L99S (UniProt Q9H040 28-245, L99S); experiment: NMR 1H,15N-HSQC; 100 uM protein, 200 uM DNA; no ubiquitin; line broadening comparable to WT; NMR: 20 mM HEPES/KOH pH 7.2, 150 mM KCl, 10% D2O, 308 K; 100 uM protein, 2x dsDNA, 5x Ub1; details: protein: recombinant; blunt
T1 sequence: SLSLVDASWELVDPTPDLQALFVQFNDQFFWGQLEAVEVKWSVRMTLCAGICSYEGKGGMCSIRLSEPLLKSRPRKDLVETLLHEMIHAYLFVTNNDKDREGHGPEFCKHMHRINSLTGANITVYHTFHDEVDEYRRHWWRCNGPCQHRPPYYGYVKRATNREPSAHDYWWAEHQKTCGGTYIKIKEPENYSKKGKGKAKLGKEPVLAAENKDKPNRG

[1] = target: SprT-BR;mono-ubiquitin (Ub1) (Homo sapiens?;, UniProt Q9H040;P0CG48 28-245;1-76, |); experiment: NMR 1H,15N-HSQC; 200 uM DNA + 500 uM Ub1; synergistic severe line broadening; NMR: 20 mM HEPES/KOH pH 7.2, 150 mM KCl, 10% D2O, 308 K; 100 uM protein, 2x dsDNA, 5x Ub1; details: protein: recombinant;recombinant; copies: 1;1; blunt
SprT-BR = target: T2, SprT-BR (UniProt Q9H040 28-245); experiment: NMR 1H,15N-HSQC; 100 uM protein, 200 uM DNA; no ubiquitin; line broadening in ZBD-BR; NMR: 20 mM HEPES/KOH pH 7.2, 150 mM KCl, 10% D2O, 308 K; 100 uM protein, 2x dsDNA, 5x Ub1; details: protein: recombinant; blunt
T2 sequence: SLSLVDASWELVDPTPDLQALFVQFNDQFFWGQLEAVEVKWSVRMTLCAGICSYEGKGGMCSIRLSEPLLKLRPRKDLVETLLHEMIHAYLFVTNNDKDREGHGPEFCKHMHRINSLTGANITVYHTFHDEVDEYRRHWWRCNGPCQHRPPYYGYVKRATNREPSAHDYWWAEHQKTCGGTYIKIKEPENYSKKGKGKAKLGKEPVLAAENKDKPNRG

Measured: binding result

B1: 15-bp dsDNA (NMR) (dsDNA)
DNA 1: CCTTGCTAGGACATC
DNA 2: GATGTCCTAGCAAGG
binds: all assays above
